Reference: the supplement of paper PMC9170038

Test system: MS2 coat protein
Assay: apparent KD of MS2 coat protein; designed switch direction (-1 OFF switch, 1 ON switch): -1; higher = weaker reporter binding
Summary of the method: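 The buffer was Tris-HCl pH 7.5 with KCl, MgCl2, BSA, DTT, tRNA and Tween-20. In it, SNAP-549-labelled MS2 coat protein was titrated in doubling steps from 0.7 or 1.5 nM to 3 µM over chip-bound RNA switches transcribed by stalled E. coli RNA polymerase on Illumina chips. Apparent KD is the per-design median over clusters of curve fits to normalised fluorescence.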

[1] = Eterna round: R95, input ligand: microRNA oligo, concentration not stated
[2] = input ligand: microRNA oligo, concentration not stated
[3] = Eterna round: R95, input ligand: FMN 200 uM
[4] = Eterna round: R95, input ligand: none

Row | Sequence | apparent KD of MS2 coat protein [1] | apparent KD of MS2 coat protein (input ligand: FMN 200 uM) | apparent KD of MS2 coat protein [2] | apparent KD of MS2 coat protein (input ligand: none) | apparent KD of MS2 coat protein [3] | apparent KD of MS2 coat protein [4]
1 | UCAUACGGUGAGGAUAUCUCCGUUAAAGUAUGUAGAGAAGGCGCUACAUGAGGAUCACCCAUGUUUGUGGGCAG [Ex-6 Malc#10] (puzzle: Exclusion 6) | 323 nM |  |  |  |  | 
2 | CAAAGUUGGUAAGGAUAUCCCACAUUAUUCUGACCCGUGCAAGCUACAUGAGGAUCACCCAUGUGGGAGAAGGUGCGUUAAAGA [Design 1] (Eterna round: R96, puzzle: Exclusion NG 2) |  | 93.4 nM | 52 nM | 94.3 nM |  | 
3 | CUAAUUAGAGGAUAUACAUGAGGAUCACCCAUGUUCUUCAAGUCGCCAACGGCAUAACGUAGAAGGCUGAGUGG [Eternabot (L1) Solution 32] (Eterna round: R97, puzzle: Exclusion 3) |  | 26.4 nM |  | 25.8 nM |  | 
4 | UAUUAGCAAGCGAGAUCUCACAUGAGGAUCACCCAUGUGCUCGUCUUAUAAGGUACUGUGACGAGAGUCACGGUACC [Mat - Sensor, turn-off var - Eli Mod - D37] (Eterna round: R97, puzzle: Sensor, turn-off variant 1) |  | 13 nM |  | 14.1 nM |  | 
5 | UAGUAUCUUCAGGAUAUCAGUGGAAAACACGUAUGAGAAGGGAAGACAUGAGGAUCACCCAUGUAAAGGGUCCG [BotMod 11 - Jieux - Exclusion 6] (Eterna round: R97, puzzle: Exclusion 6) |  | 579 nM |  | 203 nM |  | 
6 | GCUUUUCUUUUCCUUUCUUACAUGAGGAUCACCCAUGUUUCUUGUCCUGCUCGCGUUGCUCGUCUGUCUGUCUGUUG [salish99_TOv1_r3_080] (puzzle: Sensor v3, turn-off variant 1) | 24.3 nM |  |  |  | 28.7 nM | 31.2 nM
7 | UAUUAGCAAGCGAGAUCCCACAUGAGGAUCACCCAUGUGCUCGUCUUAUAUAAGGUACUGUACGAAAGUACGGUACC [Sensor 3, v1 - 91 v6] (Eterna round: R97, puzzle: Sensor, turn-off variant 1) |  | 16.6 nM |  | 16.2 nM |  | 
8 | AGCGAAUAGACAGGAUAUGAGAAUAGAUAGAGCUCAGAAGGGUCACAUGAGGAUCACCCAUGUGAAGUCUUGAGGCUGCGUGGU [Prohibition 18 - Jieux - Exclusion NG 1] (Eterna round: R96, puzzle: Exclusion NG 1) |  | 13.1 nM | 13.4 nM | 16.1 nM |  | 
9 | UCAUGGAAGCAGGAUAUGCUUGUUUAAUUGUUUGCAGAAGGGCUAACAUGAGGAUCACCCAUGUAAGAGGUCUA [JR_E6_Sub063] (puzzle: Exclusion 6) | 35.3 nM |  |  |  |  | 
10 | UAAUGUAUAUAGGAUAUCUAGCUGGAAACAGCUAGAGAAGGAUGUACAUGAGGAUCACCCAUGUAAAUCAGUGA [Ex6/14-B1] (Eterna round: R97, puzzle: Exclusion 6) |  | 239 nM |  | 55.4 nM |  | 
11 | UAUUAGCAAGCCAAUGGGUACAUGAGGAUCACCCAUGUGCUCGUCUUAUAAGGUACUGUGACGAAAGUCACGGUACC [mod--Eli10] (Eterna round: R97, puzzle: Sensor, turn-off variant 1) |  | 16.7 nM |  | 17.7 nM |  | 
12 | CUAAAUCAUGUAGGAUAUGCGUGGCGAAGCUAUGCAGAAGGACAUGAGGAUCACCCAUGUUCUUCCGUCUGCGUACAGACGGAA [JL ENG1 1.18] (Eterna round: R96, puzzle: Exclusion NG 1) |  | 316 nM | 28.7 nM | 38 nM |  | 
13 | UGUUGGCGAGGAUAUACAUGAGGAUCACCCAUGUGAGAGAAAAAAGUGAGGAAGAAAAGUAGAAGGCGCUGACA [salish99_ex3_r3_045] (puzzle: Exclusion 3) | 42.5 nM |  |  |  | 371 nM | 48.4 nM
14 | GUAAACGAUGAGGAUAUAUGAUAUCAAAGCAUCAUAGAAGGCAUCACAUGAGGAUCACCCAUGUGAUCUUCUUG [Mat - Exclusion 6 - JL Mod - D30] (Eterna round: R97, puzzle: Exclusion 6) |  | 135 nM |  | 31.3 nM |  | 
15 | GUAGAUCGAGUUAGGAUAUGAUUAAAAUCCGGAUAUCAGAAGGAACUUGAGGAUCACCCAAGUAUAGAUGAUUC [JR_BMEx4_Sub056] (Eterna round: R97, puzzle: Brourd's mod of Exclusion 4) |  | 216 nM |  | 47.9 nM |  | 
16 | UAGGAACGAGGAUAUACACCUGCAAGUGGUGUGGGUACACCACAUGAGGAUCACCCAUGUAGAAGGCGUACCAA [Lelebi] (Eterna round: R97, puzzle: Exclusion 2) |  | 57.3 nM |  | 12.3 nM |  | 
17 | AUAUUGUGAGGAUAUGAACUUACUAUCGAAAGAUACUAAGUUCAGAAGGCACAUGAGGAUCACCCAUGUUUCUC [Long static hairpin v19] (Eterna round: R97, puzzle: Exclusion 4) |  | 664 nM |  | 76.1 nM |  | 
18 | ACCGCUUCUGCAGGAUAUGGACAACAUGAGGAUCACCCAUGUGAUCUAUAAAGUAGUGGUGGCGUCCAGAAGGGCAGAUUAAGG [Maamabi] (Eterna round: R96, puzzle: Exclusion NG 2) |  | 197 nM | 48.2 nM | 96.3 nM |  | 
19 | UAUAAGGUAGGAUAUACGAAUAAAUAGGGUAGAAUAAUAACACAUGAGGAUCACCCAUGUAGAAGGACCAAGAU [Mat - Exclusion 2 - Mod of my Tesla design - D29] (puzzle: Exclusion 2) | 20.5 nM |  |  |  | 44.5 nM | 24.8 nM
20 | GUUAGACAUGAGGAUCACCCAUGUGAGGAUAUGAUGAGAAUGAAGUAAGAAGUAGGAAUCAGAAGGCACAUAUG [Mat - Mod of Hyphema D31] (puzzle: Exclusion 1) | 106 nM |  |  |  | 177 nM | 132 nM
21 | GGAAUGAGAGAGGAUAUGGGAGGGAGGACCGGACCAGAAGGCUCGACAUGAGGAUCACCCAUGUGGAGAUCCUC [AK-MS2ROC-r4-exclusion6-6.11] (Eterna round: R97, puzzle: Exclusion 6) |  | 236 nM |  | 1480 nM |  | 
22 | AAUUUACAUGAGGAUCACCCAUGUGAGGAUAUGGAUUCGCUGGCCGUAGCCAGUGGAUCCAGAAGGCGCGUGAU [JL-ex1-4.28] (Eterna round: R97, puzzle: Exclusion 1) |  | 182 nM |  | 98.2 nM |  | 
23 | GUCAGCUCGUGAGGAUAUACAUGAGGAUCACCCAUGUGGUCAAUAGCAGCUUCGGCUGCAAUAAUGUAGAAGGCACGAGCUGAC [ENG2/8-D] (Eterna round: R96, puzzle: Exclusion NG 2) |  | 57.4 nM | 1030 nM | 208 nM |  | 
24 | GGAGCGAUUCUCUUAGCUGACAUGAGGAUCACCCAUGUAUGCAAGCUCUUAUUUUGCUCGUCUUACCGGGAAUUGCU [Uslainar] (puzzle: Sensor v3, turn-off variant 1) | 18.5 nM |  |  |  | 14.8 nM | 13.2 nM
25 | AGAUGGCGAGGAUAUACAUGAGGAUCACCCAUGUGAGAAGAAGAAGUGAGGAAGAAAAGUAGAAGGCGCUGUCA [Mat - Exclusion 3 - Mod of Salish D20] (puzzle: Exclusion 3) | 50.3 nM |  |  |  | 145 nM | 44.9 nM
